Where two headings read alike, the source gives them in different places.
B1: Antibody 8 IgG (antibody, V domains shown)
VH: QVQLVQSGAEVKKPGATVKLSCKVYGYIFTDYNIYWVRQAPGKGLEWMGLIDPDNGETFYAEKFQGRATMTADTSSDRAYMELTSLTFEDTATYYCATVLGRWIKGGYDYWGRGTLVTVSS
VL: QSVLTQPPSVSGAPGQRVTISCTGSSSNIGAGYDVHWYQQLPGTAPKLLIYDNFNRPSGVPDRFSGSKSGTSASLAIIGLQTEDEADYYCQSYDSPTHTSPFGTGTKLTVL
notes: Whole human IgG (section 1.4: IgG1)
B2: Antibody 8 GL IgG (antibody, V domains shown)
VH: EVQLVQSGAEVKKPGATVKISCKVYGYIFTDYNIYWVRQAPGKGLEWMGLIDPDNGETFYAEKFQGRATMTADTSSDRAYMELSSLRFEDTAVYYCATVLGRWIKGGYDYWGRGTLVTVSS
VL: QSVLTQPPSVSGAPGQRVTISCTGSSSNIGAGYDVHWYQQLPGTAPKLLIYDNFNRPSGVPDRFSGSKSGTSASLAITGLQAEDEADYYCQSYDSPTHTSPFGTGTKLTVL
notes: Germlined IgG
B3: Antibody 11 GL IgG (antibody, V domains shown)
VH: EVQLVQSGAEVKKPGATVKISCKVYGYIFTDYNIYWVRQAPGKGLEWMGLIDPDNGETFYAEKFQGRATMTADTSSDRAYMELSSLRFEDTAVYYCATVMGKWIKGGYDYWGRGTLVTVSS
VL: QSVLTQPPSVSGAPGQRVTISCTGSSSNIGAGYDVHWYQQLPGTAPKLLIYDNFNRPSGVPDRFSGSKSGTSASLAITGLQAEDEADYYCQSYDSPTLTSPFGTGTKLTVL
notes: Germlined IgG
B4: Antibody 1 IgG (antibody, V domains shown)
VH: QVQLVQSGAEVKKPGATVKLSCKVYGYIFTDYNIYWVRQAPGKGLEWMGLIDPDNGETFYAEKFQGRATMTADTSSDRAYMELTSLTFEDTATYYCATVLHRRLKGGYDYWGRGTLVTVSS
VL: QSVLTQPPSVSGAPGQRVTISCTGSSSNIGAGYDVHWYQQLPGTAPKLLIYDNFNRPSGVPDRFSGSKSGTSASLAIIGLQTEDEADYYCQSYDSSLSGSLFGTGTKLTVL
notes: IgG1 or IgG2 vectors named; also called parent antibody
B5: Antibody 11 IgG (antibody, V domains shown)
VH: QVQLVQSGAEVKKPGATVKLSCKVYGYIFTDYNIYWVRQAPGKGLEWMGLIDPDNGETFYAEKFQGRATMTADTSSDRAYMELTSLTFEDTATYYCATVMGKWIKGGYDYWGRGTLVTVSS
VL: QSVLTQPPSVSGAPGQRVTISCTGSSSNIGAGYDVHWYQQLPGTAPKLLIYDNFNRPSGVPDRFSGSKSGTSASLAIIGLQTEDEADYYCQSYDSPTLTSPFGTGTKLTVL
notes: as for B1

Key:
[1] = target: T1, human IgEλ (U266 derived) (human, UniProt P01854-1 1-428); assay: flow cytometry: inhibition of IgE binding to CD23 on IM9 cells
T1 construct: Whole IgE purified from U266 cells (Ikeyama et al. 1986); labelled with europium cryptate or biotin in some assays; also called human IgE (U266-derived); human IgE lambda
T1 sequence (P01854 other isoform, or with tags, fused parts or gaps): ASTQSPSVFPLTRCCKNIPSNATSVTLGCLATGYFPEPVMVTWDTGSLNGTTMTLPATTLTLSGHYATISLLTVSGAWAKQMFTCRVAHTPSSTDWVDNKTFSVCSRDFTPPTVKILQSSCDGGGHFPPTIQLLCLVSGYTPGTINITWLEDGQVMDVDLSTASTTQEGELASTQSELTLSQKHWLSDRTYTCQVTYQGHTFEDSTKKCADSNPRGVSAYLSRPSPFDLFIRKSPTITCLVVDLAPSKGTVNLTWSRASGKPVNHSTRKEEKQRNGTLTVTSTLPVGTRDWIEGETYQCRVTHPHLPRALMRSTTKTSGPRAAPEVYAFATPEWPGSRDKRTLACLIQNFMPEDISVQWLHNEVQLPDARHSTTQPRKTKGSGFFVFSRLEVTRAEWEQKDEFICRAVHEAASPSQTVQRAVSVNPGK
Procedure: Antibodies were evaluated for inhibition of the IgE/CD23 interaction. […] In brief, titrations of the test IgG were mixed with IgE prior to incubation with 1M9 cells.
Assay plates were incubated on ice for 20 minutes in the dark before centrifuging at 2000 rpm for 2 minutes and washing with 2×200 uL of Flow buffer as described above. Cells were resuspended in 100 uL Cell Fix (BD biosciences) and analysed using a FACSCalibur (BD Biosciences) to detect FL2 staining.

[2] = target: T1, human IgEλ (U266 derived); assay: SPR (BIAcore 2000): IgG captured on protein G', IgE as analyte, bivalent analyte model; geomean
Procedure: (§1) In brief, Protein G′ (Sigma Aldrich, P4689) was covalently coupled to the surface of a CM5 sensor chip using standard amine coupling reagents according to manufacturer's instructions (BIAcore). […] The resulting sensorgrams were evaluated using BIA evaluation 3.1 software and fitted to a bivalent analyte model, to provide relative binding data.

[3] = target: T1, human IgEλ (U266 derived); assay: cell-based or functional assay
[4] = target: T1, human IgEλ (U266 derived); assay: cell-based or functional assay; remark: listed apart in the source
[5] = target: T1, human IgEλ (U266 derived); assay: SPR (BIAcore 2000): IgG captured on protein G', IgE as analyte, bivalent analyte model; geomean; remark: listed apart in the source
Procedure: as §1

[6] = target: T2, human IgE (human, UniProt P01854-1 1-428); assay: cell-based or functional assay
T2 sequence (P01854 other isoform, or with tags, fused parts or gaps): as above

[7] = target: T3, IgE in human serum (human, UniProt P01854-1 1-428); assay: ELISA: free serum IgE captured on coated FcERI-Fc-His after mixing serum with antibody; representative experiment
T3 construct: also called IgE in serum; free IgE
T3 sequence (P01854 other isoform, or with tags, fused parts or gaps): as above
Procedure: Serum samples were prepared from blood samples from human donors. […] To reduce background binding, plates were subsequently incubated with 200 μl/well of block buffer consisting of PBS containing 0.5% BSA, incubated at room temperature for 2 hours, and washed three times with PBST as described above. […] The plates were sealed and samples incubated at room temperature for 2 hours. To remove unbound sample, plates were washed three times with PBST as described. […] The plates were then sealed again, and incubated for 1 hour at room temperature. […] The conjugate was diluted 1:25000 in PBST, 150 μl added per well, the plates sealed, and incubated for 1 hour at room temperature. The plates were then washed three times with PBST as described. TMB-substrate solution (DAKO Substrate-Chromogen, No. S1599), 150 μl/well, was then added to each well and the plates incubated for 10 minutes at room temperature.

[8] = target: T2, human IgE; assay: KinExA

| Binder | IC50 [1] | Kd [2] | RBL-ER51 calcium signalling IC50 (Geomean), Human IgE [3] | RBL-ER51 calcium signalling IC50 (Geomean), Human IgE [4] | Kd [5] | other results |
| --- | --- | --- | --- | --- | --- | --- |
| B1 | 16.5 nM | 2.6 nM | 0.112 nM | – | – | – |
| B2 | – | – | – | 0.085 nM | 2.5 nM | – |
| B3 | – | – | – | 0.084 nM | 1.5 nM | – |
| B4 | 16 nM | – | – | – | – | – |
| B5 | 23 nM | 1.6 nM | 0.069 nM | – | – | induction of IgE positive human B cells (intracellular IgE, flow cytometry), IC50 [6]: 1.6 nM; β-hexosaminidase release of LAD2 mast cells, IC50 [6]: 0.04 nM; IC50 [7]: 0.202 nM; Kd [8]: 0.0063 nM |

From patent US20090060919A1 (AstraZeneca / MedImmune, published 2009)
